Reference: the supplement of paper PMC7125110
± gives the standard error. This sample holds only a part of the variants without activity.

B1: glmS ribozyme (parent)
chain: AUAAAAGCGCCAGAACUACAGAAAUGUAGUUGACGAGGAGGAGGUUUAUCGAAUUUUCGGCGGAUGCCUCCAAA

Columns and labels:
Details in all cases: with glucosamine-6-phosphate
glucosamine-6-phosphate [1] = variants of: B1; experiment: self-cleavage kobs at 40 uM GlcN6P; higher = faster cleavage; RNA array
Outline: (§1)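 Ribozyme variants carrying barcodes were transcribed in situ on sequenced MiSeq chips by E. coli RNA polymerase and tracked at 37 °C with a hybridised Cy3 probe. They were exposed to 40 μM to 10 mM glucosamine-6-phosphate in HEPES/KCl/Mg(OAc)2 buffer. kobs came from exponential decay fits of normalised per-tile medians, and kcat and KM from weighted Michaelis–Menten fits.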

glucosamine-6-phosphate [2] = variants of: B1; experiment: self-cleavage kobs at 160 uM GlcN6P; higher = faster cleavage; RNA array
Outline: as §1

glucosamine-6-phosphate [3] = variants of: B1; experiment: self-cleavage kobs at 2500 uM GlcN6P; higher = faster cleavage; RNA array
Outline: as §1

glucosamine-6-phosphate [4] = variants of: B1; experiment: self-cleavage kobs at 10000 uM GlcN6P; higher = faster cleavage; RNA array
Outline: as §1

glucosamine-6-phosphate [5] = variants of: B1; experiment: self-cleavage kobs at 640 uM GlcN6P; higher = faster cleavage; RNA array
Outline: as §1

Variant	self-cleavage kobs at 40 uM GlcN6P (glucosamine-6-phosphate [1])	self-cleavage kobs at 160 uM GlcN6P (glucosamine-6-phosphate [2])	self-cleavage kobs at 2500 uM GlcN6P (glucosamine-6-phosphate [3])	self-cleavage kobs at 10000 uM GlcN6P (glucosamine-6-phosphate [4])	self-cleavage kobs at 640 uM GlcN6P (glucosamine-6-phosphate [5])
G43U G63U	< 1e-05 s⁻¹	< 1e-05 s⁻¹	< 1e-05 s⁻¹	< 1e-05 s⁻¹	
G43U G63C	< 1e-05 s⁻¹	< 1e-05 s⁻¹	< 1e-05 s⁻¹		< 1e-05 s⁻¹
G41C A64C	< 1e-05 s⁻¹	< 1e-05 s⁻¹	< 1e-05 s⁻¹		< 1e-05 s⁻¹
G40U G44A	< 1e-05 s⁻¹	< 1e-05 s⁻¹		< 1e-05 s⁻¹	
G43A G66U	< 1e-05 s⁻¹		< 1e-05 s⁻¹		
A39G U45G A48G	< 1e-05 s⁻¹			6.43e-05 ± 1.9e-05 s⁻¹	
G40U C67U C70A	< 1e-05 s⁻¹				
G44A U46G U69G	< 1e-05 s⁻¹			< 1e-05 s⁻¹	
G40C C61A	< 1e-05 s⁻¹		< 1e-05 s⁻¹		
G40C U56A G62C	< 1e-05 s⁻¹		< 1e-05 s⁻¹		
G41A G62A	< 1e-05 s⁻¹	< 1e-05 s⁻¹		< 1e-05 s⁻¹	< 1e-05 s⁻¹
G40A U47C G62A A64C C70U	< 1e-05 s⁻¹		< 1e-05 s⁻¹	< 1e-05 s⁻¹	
A42G A52U C70A	< 1e-05 s⁻¹	< 1e-05 s⁻¹			
G41C U47C C68U	< 1e-05 s⁻¹				< 1e-05 s⁻¹
A39U U69C	0.000261 ± 7.1e-05 s⁻¹		0.0075 ± 0.0032 s⁻¹	0.0107 ± 0.0039 s⁻¹	
G41A G60A G62U C70A	< 1e-05 s⁻¹				
A42C A53U	< 1e-05 s⁻¹	< 1e-05 s⁻¹			< 1e-05 s⁻¹
G41C C67G	< 1e-05 s⁻¹	< 1e-05 s⁻¹	< 1e-05 s⁻¹	< 1e-05 s⁻¹	< 1e-05 s⁻¹
G41A A52G G59A	< 1e-05 s⁻¹	< 1e-05 s⁻¹			< 1e-05 s⁻¹
G43U A64U	< 1e-05 s⁻¹		< 1e-05 s⁻¹	< 1e-05 s⁻¹	< 1e-05 s⁻¹
G41A U49C U56A	< 1e-05 s⁻¹				
G40C A42C	< 1e-05 s⁻¹	< 1e-05 s⁻¹	< 1e-05 s⁻¹	< 1e-05 s⁻¹	< 1e-05 s⁻¹

Variant	self-cleavage kobs at 40 uM GlcN6P (glucosamine-6-phosphate [1])	self-cleavage kobs at 160 uM GlcN6P (glucosamine-6-phosphate [2])	self-cleavage kobs at 2500 uM GlcN6P (glucosamine-6-phosphate [3])	self-cleavage kobs at 10000 uM GlcN6P (glucosamine-6-phosphate [4])	self-cleavage kobs at 640 uM GlcN6P (glucosamine-6-phosphate [5])
G44C U45C	< 1e-05 s⁻¹	< 1e-05 s⁻¹			
G43C G59C	< 1e-05 s⁻¹	< 1e-05 s⁻¹	< 1e-05 s⁻¹	< 1e-05 s⁻¹	< 1e-05 s⁻¹
G40A G43A	< 1e-05 s⁻¹		< 1e-05 s⁻¹	< 1e-05 s⁻¹	< 1e-05 s⁻¹
G40A G43U	< 1e-05 s⁻¹	< 1e-05 s⁻¹		< 1e-05 s⁻¹	< 1e-05 s⁻¹
G43A G59C	< 1e-05 s⁻¹	< 1e-05 s⁻¹		< 1e-05 s⁻¹	< 1e-05 s⁻¹
G41U C50U G59U G66U	< 1e-05 s⁻¹				
G40A G41C C61G	< 1e-05 s⁻¹		< 1e-05 s⁻¹		< 1e-05 s⁻¹
A42G G63A U69G	< 1e-05 s⁻¹			< 1e-05 s⁻¹	
G40U G51U G62A C68U	< 1e-05 s⁻¹			< 1e-05 s⁻¹	
A39U U56A	0.000199 ± 3.1e-05 s⁻¹	0.000238 ± 8.2e-05 s⁻¹	0.00215 ± 0.00066 s⁻¹	0.00963 ± 0.00089 s⁻¹	
A39U U54G C58U	< 1e-05 s⁻¹				
A39C U65G C70G	< 1e-05 s⁻¹	< 1e-05 s⁻¹		< 1e-05 s⁻¹	< 1e-05 s⁻¹
G44C C58U	< 1e-05 s⁻¹	< 1e-05 s⁻¹	< 1e-05 s⁻¹	< 1e-05 s⁻¹	< 1e-05 s⁻¹
G43C U57A C70G	< 1e-05 s⁻¹		< 1e-05 s⁻¹		< 1e-05 s⁻¹
G41A G43U A53G C71G	< 1e-05 s⁻¹		< 1e-05 s⁻¹		
G41U U46G G59C	< 1e-05 s⁻¹		< 1e-05 s⁻¹	< 1e-05 s⁻¹	< 1e-05 s⁻¹
G40C U47A C61U	< 1e-05 s⁻¹				
A42C G66C	< 1e-05 s⁻¹	< 1e-05 s⁻¹	< 1e-05 s⁻¹	< 1e-05 s⁻¹	< 1e-05 s⁻¹
A42G G60U C68G	< 1e-05 s⁻¹				< 1e-05 s⁻¹
G44A G63U	< 1e-05 s⁻¹	< 1e-05 s⁻¹	< 1e-05 s⁻¹	< 1e-05 s⁻¹	< 1e-05 s⁻¹
G44A G63C	< 1e-05 s⁻¹		< 1e-05 s⁻¹	< 1e-05 s⁻¹	< 1e-05 s⁻¹
G41C G43C	< 1e-05 s⁻¹	< 1e-05 s⁻¹		< 1e-05 s⁻¹	< 1e-05 s⁻¹
